Test results published in patent publication US20060205649A1.

Key:
[1] = biological target: NRSF (endogenous, JTC-19 rat lung fibroblasts) (rat) (UniProt O54963); assay: cell-based or functional assay
[2] = biological target: MYC-tagged NRSF protein; assay: co-immunoprecipitation (anti-KT3) of HEK cell protein incubated with 0-1000 nM NADH, anti-MYC Western blot; the varied concentration is that of NADH, not of a protein
Chain of MYC-tagged NRSF protein (Q13127 whole entry): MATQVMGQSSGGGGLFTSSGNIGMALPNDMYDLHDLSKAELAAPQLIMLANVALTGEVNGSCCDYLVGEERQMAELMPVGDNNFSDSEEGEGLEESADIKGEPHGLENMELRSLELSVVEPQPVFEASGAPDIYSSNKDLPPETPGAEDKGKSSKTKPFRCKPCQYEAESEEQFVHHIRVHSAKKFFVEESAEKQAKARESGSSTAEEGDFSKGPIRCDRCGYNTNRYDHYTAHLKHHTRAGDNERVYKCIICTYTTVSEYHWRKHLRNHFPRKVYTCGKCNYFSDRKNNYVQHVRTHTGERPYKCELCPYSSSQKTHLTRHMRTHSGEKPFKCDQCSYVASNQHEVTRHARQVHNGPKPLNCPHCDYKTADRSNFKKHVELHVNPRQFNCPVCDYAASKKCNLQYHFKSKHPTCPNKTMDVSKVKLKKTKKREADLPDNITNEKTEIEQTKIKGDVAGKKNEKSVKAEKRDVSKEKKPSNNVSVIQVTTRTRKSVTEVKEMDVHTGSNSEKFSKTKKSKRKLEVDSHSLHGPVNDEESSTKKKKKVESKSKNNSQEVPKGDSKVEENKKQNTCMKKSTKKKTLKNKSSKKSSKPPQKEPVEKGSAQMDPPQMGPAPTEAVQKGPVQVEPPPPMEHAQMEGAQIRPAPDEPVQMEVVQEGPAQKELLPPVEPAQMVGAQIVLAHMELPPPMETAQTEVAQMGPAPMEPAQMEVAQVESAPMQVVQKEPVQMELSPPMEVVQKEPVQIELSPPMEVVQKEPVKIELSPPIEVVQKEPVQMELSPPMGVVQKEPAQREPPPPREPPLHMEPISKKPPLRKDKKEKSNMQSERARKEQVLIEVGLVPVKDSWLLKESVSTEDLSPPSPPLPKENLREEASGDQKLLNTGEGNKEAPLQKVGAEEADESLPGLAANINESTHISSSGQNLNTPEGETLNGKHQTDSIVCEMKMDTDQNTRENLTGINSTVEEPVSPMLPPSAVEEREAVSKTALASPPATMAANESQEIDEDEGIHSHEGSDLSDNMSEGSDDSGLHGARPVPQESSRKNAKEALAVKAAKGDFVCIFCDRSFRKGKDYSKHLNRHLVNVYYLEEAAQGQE

Chain of NRSF (endogenous, JTC-19 rat lung fibroblasts) (rat) (O54963 whole entry): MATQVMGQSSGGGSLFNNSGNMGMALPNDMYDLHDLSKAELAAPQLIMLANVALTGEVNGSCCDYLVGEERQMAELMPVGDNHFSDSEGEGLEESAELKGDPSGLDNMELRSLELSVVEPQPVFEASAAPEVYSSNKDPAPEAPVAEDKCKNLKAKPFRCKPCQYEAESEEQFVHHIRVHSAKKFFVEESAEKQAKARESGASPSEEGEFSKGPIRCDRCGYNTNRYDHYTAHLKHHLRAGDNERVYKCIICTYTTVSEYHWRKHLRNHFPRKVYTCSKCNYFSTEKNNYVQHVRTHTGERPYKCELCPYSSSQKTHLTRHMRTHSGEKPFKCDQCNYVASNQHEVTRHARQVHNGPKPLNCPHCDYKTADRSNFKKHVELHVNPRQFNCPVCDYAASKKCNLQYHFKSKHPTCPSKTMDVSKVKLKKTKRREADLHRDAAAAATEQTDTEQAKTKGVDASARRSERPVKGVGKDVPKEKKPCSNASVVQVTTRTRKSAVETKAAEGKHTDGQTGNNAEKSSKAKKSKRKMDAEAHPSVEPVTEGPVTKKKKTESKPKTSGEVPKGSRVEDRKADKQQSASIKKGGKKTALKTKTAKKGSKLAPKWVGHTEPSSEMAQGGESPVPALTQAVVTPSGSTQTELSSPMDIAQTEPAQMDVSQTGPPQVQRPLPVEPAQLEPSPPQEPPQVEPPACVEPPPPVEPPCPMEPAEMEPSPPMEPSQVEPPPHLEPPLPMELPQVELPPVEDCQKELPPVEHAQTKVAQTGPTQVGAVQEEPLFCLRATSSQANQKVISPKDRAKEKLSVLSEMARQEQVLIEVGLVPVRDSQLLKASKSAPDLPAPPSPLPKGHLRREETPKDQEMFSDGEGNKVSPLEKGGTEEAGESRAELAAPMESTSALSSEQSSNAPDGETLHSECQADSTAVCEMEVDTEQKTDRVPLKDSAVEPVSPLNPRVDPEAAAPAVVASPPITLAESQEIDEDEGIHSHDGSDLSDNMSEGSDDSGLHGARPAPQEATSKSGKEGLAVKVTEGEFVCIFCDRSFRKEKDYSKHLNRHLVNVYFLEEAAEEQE
Chain of KT3-tagged CtBP2 (P56546 whole entry): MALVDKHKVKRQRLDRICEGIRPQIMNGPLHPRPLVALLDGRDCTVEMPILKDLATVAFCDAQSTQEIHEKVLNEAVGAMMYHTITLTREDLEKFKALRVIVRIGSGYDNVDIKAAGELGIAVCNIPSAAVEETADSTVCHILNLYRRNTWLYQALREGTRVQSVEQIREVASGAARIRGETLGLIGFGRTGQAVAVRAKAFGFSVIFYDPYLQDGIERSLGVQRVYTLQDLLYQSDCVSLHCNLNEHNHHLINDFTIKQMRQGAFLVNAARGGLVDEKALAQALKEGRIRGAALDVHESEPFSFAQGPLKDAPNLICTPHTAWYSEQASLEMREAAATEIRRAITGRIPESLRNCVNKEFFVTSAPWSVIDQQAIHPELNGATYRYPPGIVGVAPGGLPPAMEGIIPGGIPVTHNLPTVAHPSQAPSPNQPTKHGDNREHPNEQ

| amount of CtBP recruited to CHRM4, the NRSF target gene (ChIP, JTC-19 cells grown with 2-DG or glucose) [1] [fold] | NADH concentration at half maximal binding of CtBP to NRSF [2] [nM] | Substance |
| --- | --- | --- |
| 5 |  | CtBP (endogenous, JTC-19 rat lung fibroblasts) (from UniProt F7FG31 1-441) |
|  | 70 | KT3-tagged CtBP2 |
